Data reported in US20230131339A1, “EPI-X4 BASED PEPTIDES AND DERIVATIVES THEREOF” (Universitaet Ulm, priority 2020, published 2023).
“And” between values parts separate entries of the source, which are not always exact repeats. Equal entries are not always repeated. Where a SMILES comes first, the peptide text is derived from it. Primed or numbered codes have the meaning given here. Where no end group is shown, it is not given here. Side-chain parts run from the residue outwards. [ ]: non-standard residue; d: D form. The star is where a group is joined. Glu″ = glutamate linker (Glu-Pal); Palmitoyl = CCCCCCCCCCCCCCCC(=O)*; Myristoyl = CCCCCCCCCCCCCC(=O)*; Glu = glutamate linker; Ole = not defined here

B1: JM#180 (peptide)
peptide: [dL]MRWSRK(Palmitoyl)-NH2
modifications: N-terminus assumed
SMILES: CCCCCCCCCCCCCCCC(=O)NCCCC[C@H](NC(=O)[C@H](CCCNC(=N)N)NC(=O)[C@H](CO)NC(=O)[C@H](Cc1c[nH]c2ccccc12)NC(=O)[C@H](CCCNC(=N)N)NC(=O)[C@H](CCSC)NC(=O)[C@H](N)CC(C)C)C(N)=O
B2: JM#172 (peptide)
peptide: ILRWSRK(Palmitoyl)L-NH2
modifications: N-terminus assumed
SMILES: CCCCCCCCCCCCCCCC(=O)NCCCC[C@H](NC(=O)[C@H](CCCNC(=N)N)NC(=O)[C@H](CO)NC(=O)[C@H](Cc1c[nH]c2ccccc12)NC(=O)[C@H](CCCNC(=N)N)NC(=O)[C@H](CC(C)C)NC(=O)[C@@H](N)[C@@H](C)CC)C(=O)N[C@@H](CC(C)C)C(N)=O
B3: JM#236 (peptide)
peptide: [dL]LRWSRK(Palmitoyl)-NH2
modifications: N-terminus assumed
SMILES: CCCCCCCCCCCCCCCC(=O)NCCCC[C@H](NC(=O)[C@H](CCCNC(=N)N)NC(=O)[C@H](CO)NC(=O)[C@H](Cc1c[nH]c2ccccc12)NC(=O)[C@H](CCCNC(=N)N)NC(=O)[C@H](CC(C)C)NC(=O)[C@H](N)CC(C)C)C(N)=O
B4: JM#261 (peptide)
peptide: [dL]LRWSRK(Myristoyl)-NH2
modifications: N-terminus assumed
SMILES: CCCCCCCCCCCCCC(=O)NCCCC[C@H](NC(=O)[C@H](CCCNC(=N)N)NC(=O)[C@H](CO)NC(=O)[C@H](Cc1c[nH]c2ccccc12)NC(=O)[C@H](CCCNC(=N)N)NC(=O)[C@H](CC(C)C)NC(=O)[C@H](N)CC(C)C)C(N)=O

Tested on: CXCR4-tropic X4-HIV-1 (NL4-3)
Experiment: not given
Format: cell-based
Conditions: not given
With “d-MLRWSRK(Glu-Pal)-NH2 ([dM]LRWSRK([Glu″-Palmitoyl])-NH2) [JM #196]” the “anti-HIV-1 activity (in words)” value was “strongly increased anti-HIV-1 activity”.
In the case of “d-MLRWSRKK(Glu-Pal)-NH2 ([dM]LRWSRKK([Glu″-Palmitoyl])-NH2) [JM #197]”, the “anti-HIV-1 activity (in words)” value is reported as “strongly increased anti-HIV-1 activity”.
In the case of “d-LMRWSRKK(Glu-Pal)-NH2 ([dL]MRWSRKK([Glu″-Palmitoyl])-NH2) [JM #195]”, the “anti-HIV-1 activity (in words)” value is reported as “strongly increased anti-HIV-1 activity”.

Same assay, conditions: CXCR4-tropic X4- (NL4-3)
Molecule `CC[C@H](C)[C@H](N)C(=O)N[C@@H](CC(C)C)C(=O)N[C@@H](CCCNC(=N)N)C(=O)N[C@@H](Cc1c[nH]c2ccccc12)C(=O)N[C@@H](CO)C(=O)N[C@@H](CCCNC(=N)N)C(=O)N[C@@H](CCCCN)C(=O)N[C@@H](CCSC)C(=O)N1CCC[C@H]1C(=O)N[C@@H](CS)C(=O)N[C@@H](Cc1ccccc1)C(=O)N[C@@H](CO)C(=O)O` [JM #19] (H-ILRWSRKMPCFS-OH; C-terminus assumed) has an IC50 of 5 to 10 nM.
For `CC[C@H](C)[C@H](N)C(=O)N[C@@H](CC(C)C)C(=O)N[C@@H](CCCNC(=N)N)C(=O)N[C@@H](Cc1c[nH]c2ccccc12)C(=O)N[C@@H](CO)C(=O)N[C@@H](CCCNC(=N)N)C(=O)N[C@@H](CCCCN)C(=O)N[C@@H](CCSC)C(=O)N1CCC[C@H]1C(=O)N[C@@H](CS)C(=O)N[C@H](C(=O)N[C@@H](CO)C(=O)O)C(C)C` [JM #13] (H-ILRWSRKMPCVS-OH; C-terminus assumed), the IC50 was less than 5 nM.
Molecule `CC[C@H](C)[C@H](N)C(=O)N[C@@H](CC(C)C)C(=O)N[C@@H](CCCNC(=N)N)C(=O)N[C@@H](Cc1c[nH]c2ccccc12)C(=O)N[C@@H](CO)C(=O)N[C@@H](CCCNC(=N)N)C(=O)N[C@@H](CCCCN)C(=O)N[C@@H](CCSC)C(=O)N1CCC[C@H]1C(=O)N[C@@H](CS)C(=O)N[C@@H](CCSC)C(=O)N[C@@H](CO)C(=O)O` [JM #20] (H-ILRWSRKMPCMS-OH; C-terminus assumed) has an IC50 of less than 5 nM.
`CC[C@H](C)[C@H](N)C(=O)N[C@@H](CC(C)C)C(=O)N[C@@H](CCCNC(=N)N)C(=O)N[C@@H](Cc1c[nH]c2ccccc12)C(=O)N[C@@H](CO)C(=O)N[C@@H](CCCNC(=N)N)C(=O)N[C@@H](CCCCN)C(=O)N[C@@H](Cc1ccccc1)C(=O)N1CCC[C@H]1C(=O)N[C@@H](CS)C(=O)N[C@H](C(=O)N[C@@H](CO)C(=O)O)C(C)C` [JM #22] (H-ILRWSRKFPCVS-OH; C-terminus assumed) showed an IC50 of less than 5 nM.
For `CC[C@H](C)[C@H](N)C(=O)N[C@@H](CCSC)C(=O)N[C@@H](CCCNC(=N)N)C(=O)N[C@@H](Cc1c[nH]c2ccccc12)C(=O)N[C@@H](CO)C(=O)N[C@@H](CCCNC(=N)N)C(=O)N[C@@H](CCCCN)C(=O)N[C@@H](CCSC)C(=O)N1CCC[C@H]1C(=O)N[C@@H](CS)C(=O)N[C@H](C(=O)N[C@@H](CO)C(=O)O)C(C)C` [JM #17] (H-IMRWSRKMPCVS-OH; C-terminus assumed), the IC50 was less than 5 nM.

Tested on: not listed separately
Experiment: Functional stability assay in human plasma
Conditions: human plasma, 2 hours
Description: Fourth, the stability of peptides in human plasma and whole human blood was tested (FIG. 4). The functional stability of EPI-X4 (SEQ ID NO.: 1) derivatives was screened using a CXCR4 antibody-based screening approach. Peptides were diluted in full human plasma or blood (>99%) and the functional activity was then measured after either 2 hours or 8 hours and compared to a sample that was not incubated in plasma or blood.
In this test, the peptides were incubated in human plasma for a certain time period.
Stability assay. Whole blood was collected from healthy donors in EDTA tubes and directly used or subsequently centrifuged for 15 min at 2,500×g to obtain plasma. Plasma from 6 donors was pooled and stored in aliquots at −80° C. Compounds were 200-fold diluted in human plasma or whole human blood to reach final concentrations of 20 μM. The t=0 sample was immediately taken and stored at −80° C. Plasma/compound or blood/compound mixture was then transferred to 37° C. and shook at 350 rpm. At given time points samples were taken and stored at −80° C.°. For measuring the functional activity of the plasma/peptide samples, the mixtures were thawed and diluted in ice cold PBS. 12G5-APC antibody competition was then performed as described before. For blood/peptide functional stability, samples were thawed and centrifuged at 14,000 rpm to remove cells and debris. The supernatant was then diluted in PBS and 12G5-antibody competition assay was performed. After the 2 hours incubation, the cells were washed and 50 μl of 1-step-Fix/Lyse solution (Thermo Fisher #00-5333-54) was added for 15 minutes at room temperature. Afterwards cells were washed again and analyzed for bound antibody.
In the case of `CSCC[C@H](NC(=O)[C@H](N)CC(C)C)C(=O)N[C@@H](CCCNC(=N)N)C(=O)N[C@@H](Cc1c[nH]c2ccccc12)C(=O)N[C@@H](CO)C(=O)N[C@@H](CCCNC(=N)N)C(=O)N[C@@H](CCCCN)C(=O)N[C@@H](CCSC)C(=O)N1CCC[C@H]1C(=O)N[C@@H](CS)C(=O)N[C@H](C(=O)N[C@@H](CO)C(=O)O)C(C)C` [JM #36] (H-[dL]MRWSRKMPCVS-OH; C-terminus assumed), the “remaining (relative) activity after 2 hours of plasma incubation” value is reported as 85%.

Same assay, conditions: human plasma, 8 hours
For `CC[C@@H](C)[C@@H](N)C(=O)N[C@@H](CC(C)C)C(=O)N[C@@H](CCCNC(=N)N)C(=O)N[C@@H](Cc1c[nH]c2ccccc12)C(=O)N[C@@H](CO)C(=O)N[C@@H](CCCNC(=N)N)C(=O)N[C@@H](CCCCN)C(=O)N[C@@H](CC(C)C)C(=O)N1CCC[C@H]1C(N)=O` [JM #174] (H-[dI]LRWSRKLP-NH2), the “remaining (relative) activity after 8 hours of plasma incubation” value was 100%.
In the case of `CSCC[C@H](NC(=O)[C@H](N)CC(C)C)C(=O)N[C@@H](CCCNC(=N)N)C(=O)N[C@@H](Cc1c[nH]c2ccccc12)C(=O)N[C@@H](CO)C(=O)N[C@@H](CCCNC(=N)N)C(=O)N[C@@H](CCCCN)C(=O)N[C@@H](CCSC)C(=O)N1CCC[C@H]1C(=O)N[C@@H](CS)C(=O)N[C@H](C(=O)N[C@@H](CO)C(=O)O)C(C)C` [JM #36] (H-[dL]MRWSRKMPCVS-OH; C-terminus assumed), the “remaining (relative) activity after 8 hours of plasma incubation” value is reported as 81%.

Molecular target: CXC chemokine receptor type 4 (CXCR4) (human, UniProt P61073 1-352)
Sequence (P61073 whole entry): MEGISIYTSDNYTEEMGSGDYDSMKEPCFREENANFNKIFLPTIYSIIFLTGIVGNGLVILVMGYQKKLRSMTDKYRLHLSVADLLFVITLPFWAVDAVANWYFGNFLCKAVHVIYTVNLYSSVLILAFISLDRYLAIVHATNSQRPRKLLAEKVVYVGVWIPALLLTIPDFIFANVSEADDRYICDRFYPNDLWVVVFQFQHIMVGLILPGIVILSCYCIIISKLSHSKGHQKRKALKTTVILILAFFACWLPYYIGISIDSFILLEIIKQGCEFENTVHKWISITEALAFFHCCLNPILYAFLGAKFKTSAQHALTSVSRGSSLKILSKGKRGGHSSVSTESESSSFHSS
Experiment: cell-based or functional assay
Conditions: not given
In the case of ILRWSRKLPCVS (also: PEG-coupled, average 5 kDa) [SC033], the “IC50, HIV-1 inhibition assay” value is reported as 716 nM.
For ILRWSRK(Ole)LPCVS (reading uncertain) [JM#183], the “IC50, HIV inhibition assay” value was 5 to 10 nM.
For ILRWSRKLPCVS (not fully specified (residue 7)) [JM#213], the “IC50, HIV inhibition assay” value was 5 to 10 nM.
For ILRWSRKFPCVS [JM#22], the “IC50, X4-HIV-1 inhibition assay” value was less than 5 nM.
With [dL]LRWSRK-NH2 (not fully specified (residue 7)) [JM#257] the “IC50, HIV inhibition assay” value was 5 to 10 nM.
In the case of ILRWSRKLPCVS (also: peptide copies coupled to the two different ends of PEG 20 kDa) [SC029], the “IC50, HIV-1 inhibition assay” value is reported as 98 nM.
With B1 the “IC50, HIV inhibition assay” value was 5 to 10 nM.
For [dI]LRWSRK(Palmitoyl)-NH2 [JM#237], the “IC50, HIV inhibition assay” value was greater than 150 nM.
In the case of [dL]LRWSRK-NH2 (not fully specified (residue 7)) [JM#235], the “IC50, HIV inhibition assay” value is reported as 5 to 10 nM.
With ILRWSRKMPCFS [JM#19] the “IC50, HIV inhibition assay” value was 5 to 10 nM.
With ILRWSRK-NH2 (not fully specified (residue 7)) [JM#255] the “IC50, X4-HIV-1 inhibition assay” value was less than 5 nM.
With B2 the “IC50, HIV inhibition assay” value was 5 to 10 nM.
With ILRWSRK-NH2 (not fully specified (residue 7)) [JM#192] the “IC50, X4-HIV-1 inhibition assay” value was < 5 nM and 2 nM.
In the case of ILRWSRKMPCLS [JM#18], the “IC50, X4-HIV-1 inhibition assay” value is reported as less than 5 nM.
For B3, the “IC50, HIV inhibition assay” value was greater than 150 nM.
With ILRWSRK([Glu-Palmitoyl])LPSVS [SEQ ID NO.: 163] the “IC50, HIV inhibition assay” value was greater than 150 nM.
For ILRWSRKMPCVS [JM#13], the “IC50, X4-HIV-1 inhibition assay” value was less than 5 nM.
With IMRWSRKMPCVS [JM#17] the “IC50, X4-HIV-1 inhibition assay” value was less than 5 nM.
With [dI]LRWSRK-NH2 (not fully specified (residue 7)) [JM#238] the “IC50, HIV inhibition assay” value was 5 to 10 nM.
For B4, the “IC50, HIV inhibition assay” value was greater than 150 nM.
With [dL]MRWSRK-NH2 (not fully specified (residue 7)) [JM#194] the “IC50, X4-HIV-1 inhibition assay” value was < 5 nM and 2 nM.
In the case of ILRWSRKMPCMS [JM#20], the “IC50, X4-HIV-1 inhibition assay” value is reported as less than 5 nM.
For ILRWSRKLPCVS (also: coupled to PEG 20 kDa, site not given here) [SC024], the “IC50, HIV-1 inhibition assay” value was 118 nM.
